Assay results from patent US20200262877A1, “ION CHANNEL-BINDING PEPTIDES AND METHODS OF USE THEREOF” (priority 2017, published 2020).

Tests used:
NR2B = target: T1, NR2B (Homo sapiens, UniProt Q13224); test: Ion channel panel (IonWorks Barracuda): NR2B; assay type: cell-based; settings: 100% = no change, <100% = inhibition
T1 construct: host or cells: HEK293 or CHO
Outline: (§1)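 Transfected HEK293 or CHO cells were exposed for at least 5 min to peptides at 200 nM and 20 μM final, tested in duplicate, in HEPES-buffered physiological saline. Activation was taken as peptide-plus-agonist current over control current ×100, and inhibition as 1 minus that ratio ×100. Each channel's control was its own reference compound.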

α4β2 = target: T2, α4β2 (Homo sapiens, UniProt P17787+P43681); test: Ion channel panel (IonWorks Barracuda): α4β2; assay type: cell-based; settings: 100% = no change, <100% = inhibition
T2 construct: host or cells: HEK293 or CHO
Outline: as §1

GABA = test: Ion channel panel (IonWorks Barracuda): GABA; assay type: cell-based; settings: 100% = no change, <100% = inhibition
Outline: as §1

Nav1.5 = Nav1.5 (Homo sapiens, UniProt Q14524); test: in vitro; settings: 100% = no change; for Activity of Nav1.5 with peptide, expressed as a percentage of the reference compound: peptide at 0.2 μM; for Activity of Nav1.5 with peptide (percentage of the reference compound): peptide at 20 μM
Outline: as §1

hERG = hERG (Homo sapiens, UniProt Q12809); test: in vitro; settings: 100% = no change, <100% = inhibition
Outline: as §1

TRPV1 = target: T3, TRPV1 (Homo sapiens, UniProt Q8NER1); test: Ion channel panel (IonWorks Barracuda): TRPV1; assay type: cell-based; settings: 100% = no change, <100% = inhibition
T3 construct: host or cells: HEK293 or CHO
Outline: as §1

NR2A = target: T4, NR2A (Homo sapiens, UniProt Q12879); test: Ion channel panel (IonWorks Barracuda): NR2A; assay type: cell-based; settings: 100% = no change, <100% = inhibition
T4 construct: host or cells: HEK293 or CHO
Outline: as §1

α3β4 = target: T5, α3β4 (Homo sapiens, UniProt P30926+P32297); test: Ion channel panel (IonWorks Barracuda): α3β4; assay type: cell-based; settings: 100% = no change, <100% = inhibition
T5 construct: host or cells: HEK293 or CHO
Outline: as §1

5HT3a = target: T6, 5HT3a (Homo sapiens, UniProt P46098); test: Ion channel panel (IonWorks Barracuda): 5HT3a; assay type: cell-based
T6 construct: host or cells: HEK293 or CHO
T6 sequence (P46098 whole entry, looked up): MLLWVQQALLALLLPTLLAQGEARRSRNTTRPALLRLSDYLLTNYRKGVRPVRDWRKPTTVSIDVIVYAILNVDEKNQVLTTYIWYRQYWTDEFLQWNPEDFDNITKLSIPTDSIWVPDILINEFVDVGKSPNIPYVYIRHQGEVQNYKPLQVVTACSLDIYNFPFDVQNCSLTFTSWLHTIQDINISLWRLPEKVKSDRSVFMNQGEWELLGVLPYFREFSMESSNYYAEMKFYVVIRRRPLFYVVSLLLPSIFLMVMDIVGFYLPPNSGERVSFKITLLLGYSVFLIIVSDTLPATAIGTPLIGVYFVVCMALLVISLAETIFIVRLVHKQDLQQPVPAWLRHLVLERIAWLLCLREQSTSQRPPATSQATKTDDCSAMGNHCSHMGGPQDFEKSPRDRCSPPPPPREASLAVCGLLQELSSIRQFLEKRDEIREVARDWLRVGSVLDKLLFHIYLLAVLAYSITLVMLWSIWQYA
Outline: as §1

Nav1.7 = target: T7, Nav1.7 (Homo sapiens, UniProt Q15858); test: cell-based; assay type: cell-based; settings: 100% = no change; for Activity of Nav1.7 with peptide, expressed as a percentage of the reference compound: peptide at 0.2 μM; for Activity of Nav1.7 with peptide (percentage of the reference compound): peptide at 20 μM
T7 construct: host or cells: HEK293 or CHO

Kir2.1 = target: T8, Kir2.1 (Homo sapiens, UniProt P63252); test: Ion channel panel (IonWorks Barracuda): Kir2.1; assay type: cell-based; settings: 100% = no change, <100% = inhibition
T8 construct: host or cells: HEK293 or CHO
Outline: as §1

Kv1.1 = target: T9, Kv1.1 (Homo sapiens, UniProt Q09470); test: cell-based; assay type: cell-based; settings: 100% = no change, <100% = inhibition
T9 construct: host or cells: HEK293 or CHO
Outline: as §1

Kv1.2 = target: T10, Kv1.2 (Homo sapiens, UniProt P16389); test: cell-based; assay type: cell-based; settings: 100% = no change, <100% = inhibition
T10 construct: host or cells: HEK293 or CHO
Outline: as §1

Kv1.3 = target: T11, Kv1.3 (Homo sapiens, UniProt P22001); test: cell-based; assay type: cell-based; settings: 100% = no change, <100% = inhibition
T11 construct: host or cells: HEK293 or CHO
Outline: as §1

Kv2.1 = target: T12, Kv2.1 (Homo sapiens, UniProt Q14721); test: cell-based; settings: 100% = no change, <100% = inhibition
T12 construct: host or cells: HEK293 or CHO
Outline: as §1

Cav2.1 = target: T13, Cav2.1 (Homo sapiens, UniProt O00555); test: cell-based; settings: 100% = no change, <100% = inhibition
T13 construct: host or cells: HEK293 or CHO
Outline: as §1

Cav2.2 = target: T14, Cav2.2 (Homo sapiens, UniProt Q00975); test: cell-based; settings: 100% = no change, <100% = inhibition
T14 construct: host or cells: HEK293 or CHO
Outline: as §1

TRPA1 = target: T15, TRPA1 (Homo sapiens, UniProt O75762); test: Ion channel panel (IonWorks Barracuda): TRPA1; assay type: cell-based; settings: 100% = no change, <100% = inhibition
T15 construct: host or cells: HEK293 or CHO
Outline: as §1

[1] = first of two Nav1.5 columns (probably TP1)
[2] = second of two Nav1.5 columns (probably TP2)
[3] = first of two Nav1.7 columns (probably TP1)
[4] = second of two Nav1.7 columns (probably TP2)

Sequence of Nav1.5 (Q14524 whole entry): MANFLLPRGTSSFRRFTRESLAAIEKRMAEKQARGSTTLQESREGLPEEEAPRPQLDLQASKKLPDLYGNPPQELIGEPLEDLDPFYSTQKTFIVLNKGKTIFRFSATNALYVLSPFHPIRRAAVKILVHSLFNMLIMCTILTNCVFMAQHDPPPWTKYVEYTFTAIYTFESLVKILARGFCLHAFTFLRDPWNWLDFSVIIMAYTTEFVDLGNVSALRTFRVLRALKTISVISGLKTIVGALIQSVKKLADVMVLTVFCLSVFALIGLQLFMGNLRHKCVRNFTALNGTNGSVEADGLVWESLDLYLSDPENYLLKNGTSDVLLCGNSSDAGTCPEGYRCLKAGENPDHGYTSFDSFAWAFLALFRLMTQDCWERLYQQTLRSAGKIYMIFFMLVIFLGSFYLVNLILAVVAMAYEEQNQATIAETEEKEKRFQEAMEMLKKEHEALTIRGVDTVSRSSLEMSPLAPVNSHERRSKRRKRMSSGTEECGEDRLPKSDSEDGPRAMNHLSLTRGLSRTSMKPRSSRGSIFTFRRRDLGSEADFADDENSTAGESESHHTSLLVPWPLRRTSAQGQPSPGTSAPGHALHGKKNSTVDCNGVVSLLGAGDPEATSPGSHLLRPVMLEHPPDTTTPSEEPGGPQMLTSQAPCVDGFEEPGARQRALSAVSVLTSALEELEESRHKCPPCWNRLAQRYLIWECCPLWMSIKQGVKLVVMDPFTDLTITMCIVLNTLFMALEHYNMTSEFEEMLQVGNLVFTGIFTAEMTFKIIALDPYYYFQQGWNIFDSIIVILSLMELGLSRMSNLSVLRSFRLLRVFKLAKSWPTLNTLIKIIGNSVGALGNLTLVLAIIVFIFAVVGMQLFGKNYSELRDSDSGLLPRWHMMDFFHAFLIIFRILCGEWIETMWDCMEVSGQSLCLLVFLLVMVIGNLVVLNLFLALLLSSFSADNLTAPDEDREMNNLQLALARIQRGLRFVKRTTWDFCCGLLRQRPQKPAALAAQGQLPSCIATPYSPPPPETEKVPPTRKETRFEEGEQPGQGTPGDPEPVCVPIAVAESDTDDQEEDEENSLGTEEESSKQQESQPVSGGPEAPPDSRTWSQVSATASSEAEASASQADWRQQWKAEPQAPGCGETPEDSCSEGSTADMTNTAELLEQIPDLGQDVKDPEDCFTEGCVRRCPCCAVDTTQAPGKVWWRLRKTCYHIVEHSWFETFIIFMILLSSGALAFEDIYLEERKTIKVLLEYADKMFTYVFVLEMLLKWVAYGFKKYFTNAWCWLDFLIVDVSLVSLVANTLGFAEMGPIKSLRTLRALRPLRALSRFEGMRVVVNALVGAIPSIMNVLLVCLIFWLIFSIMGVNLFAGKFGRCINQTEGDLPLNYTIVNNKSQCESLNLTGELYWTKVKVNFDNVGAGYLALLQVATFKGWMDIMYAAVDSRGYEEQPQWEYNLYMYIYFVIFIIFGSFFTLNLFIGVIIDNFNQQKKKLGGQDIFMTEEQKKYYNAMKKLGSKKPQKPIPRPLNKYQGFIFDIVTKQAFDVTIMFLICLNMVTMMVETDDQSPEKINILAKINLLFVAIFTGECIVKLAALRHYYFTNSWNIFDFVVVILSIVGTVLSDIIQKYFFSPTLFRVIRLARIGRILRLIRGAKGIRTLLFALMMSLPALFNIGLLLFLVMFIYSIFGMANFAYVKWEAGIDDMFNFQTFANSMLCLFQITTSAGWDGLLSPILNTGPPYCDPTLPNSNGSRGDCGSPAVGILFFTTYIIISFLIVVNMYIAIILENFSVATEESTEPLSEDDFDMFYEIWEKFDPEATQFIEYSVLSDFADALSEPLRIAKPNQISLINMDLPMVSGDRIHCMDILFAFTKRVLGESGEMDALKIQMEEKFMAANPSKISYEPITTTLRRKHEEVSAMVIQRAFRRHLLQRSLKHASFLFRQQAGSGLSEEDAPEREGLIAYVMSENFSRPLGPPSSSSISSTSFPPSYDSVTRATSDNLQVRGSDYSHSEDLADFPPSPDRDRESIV
T7 sequence (Q15858 whole entry): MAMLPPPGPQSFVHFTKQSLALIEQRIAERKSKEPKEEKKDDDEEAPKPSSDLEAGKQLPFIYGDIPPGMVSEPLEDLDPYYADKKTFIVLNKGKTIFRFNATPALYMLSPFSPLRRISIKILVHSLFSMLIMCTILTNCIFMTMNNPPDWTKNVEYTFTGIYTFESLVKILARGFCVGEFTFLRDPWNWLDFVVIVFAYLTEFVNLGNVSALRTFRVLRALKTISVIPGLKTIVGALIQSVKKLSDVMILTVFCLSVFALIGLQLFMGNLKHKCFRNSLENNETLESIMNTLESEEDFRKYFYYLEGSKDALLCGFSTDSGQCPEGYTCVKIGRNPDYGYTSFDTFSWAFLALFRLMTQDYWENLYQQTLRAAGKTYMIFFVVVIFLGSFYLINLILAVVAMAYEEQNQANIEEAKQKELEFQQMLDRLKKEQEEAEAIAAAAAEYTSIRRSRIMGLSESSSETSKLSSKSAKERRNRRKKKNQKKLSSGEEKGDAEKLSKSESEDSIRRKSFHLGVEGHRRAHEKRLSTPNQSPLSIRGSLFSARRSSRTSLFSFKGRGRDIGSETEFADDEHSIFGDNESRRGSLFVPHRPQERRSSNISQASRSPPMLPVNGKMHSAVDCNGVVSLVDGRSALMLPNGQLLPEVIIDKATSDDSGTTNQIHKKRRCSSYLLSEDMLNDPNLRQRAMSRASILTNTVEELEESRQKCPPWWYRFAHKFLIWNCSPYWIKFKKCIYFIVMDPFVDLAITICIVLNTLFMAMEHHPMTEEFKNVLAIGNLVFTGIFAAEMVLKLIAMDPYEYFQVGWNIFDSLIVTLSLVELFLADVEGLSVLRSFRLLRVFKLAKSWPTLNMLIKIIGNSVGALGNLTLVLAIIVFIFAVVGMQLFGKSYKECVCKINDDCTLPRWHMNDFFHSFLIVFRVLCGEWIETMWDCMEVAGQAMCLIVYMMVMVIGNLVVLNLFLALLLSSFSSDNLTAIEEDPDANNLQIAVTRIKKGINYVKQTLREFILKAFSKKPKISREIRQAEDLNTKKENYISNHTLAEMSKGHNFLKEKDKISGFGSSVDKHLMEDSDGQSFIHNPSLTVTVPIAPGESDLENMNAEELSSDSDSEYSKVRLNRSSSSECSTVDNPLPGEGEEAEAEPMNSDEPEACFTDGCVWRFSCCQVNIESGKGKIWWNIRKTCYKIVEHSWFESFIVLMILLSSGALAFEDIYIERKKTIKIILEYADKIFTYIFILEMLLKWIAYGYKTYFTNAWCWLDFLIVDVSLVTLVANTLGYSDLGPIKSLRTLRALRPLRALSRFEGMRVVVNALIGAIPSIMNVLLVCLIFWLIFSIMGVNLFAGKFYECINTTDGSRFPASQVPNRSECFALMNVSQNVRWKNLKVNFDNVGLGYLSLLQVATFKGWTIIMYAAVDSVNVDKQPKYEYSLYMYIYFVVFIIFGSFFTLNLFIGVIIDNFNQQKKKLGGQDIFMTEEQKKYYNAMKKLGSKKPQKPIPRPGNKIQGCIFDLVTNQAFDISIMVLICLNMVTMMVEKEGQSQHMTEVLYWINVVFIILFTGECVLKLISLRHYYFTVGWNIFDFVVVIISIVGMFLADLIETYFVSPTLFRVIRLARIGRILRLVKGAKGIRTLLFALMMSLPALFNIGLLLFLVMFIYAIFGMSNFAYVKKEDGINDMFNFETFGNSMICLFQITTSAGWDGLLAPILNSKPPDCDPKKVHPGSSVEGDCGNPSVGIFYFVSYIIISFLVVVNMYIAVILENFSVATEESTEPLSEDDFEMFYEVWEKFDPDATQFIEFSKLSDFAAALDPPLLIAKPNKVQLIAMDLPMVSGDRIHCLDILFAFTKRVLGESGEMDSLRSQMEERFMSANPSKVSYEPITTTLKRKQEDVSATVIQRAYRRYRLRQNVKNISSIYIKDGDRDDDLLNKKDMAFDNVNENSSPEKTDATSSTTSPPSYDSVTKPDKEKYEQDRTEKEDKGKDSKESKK
T15 sequence (O75762 whole entry): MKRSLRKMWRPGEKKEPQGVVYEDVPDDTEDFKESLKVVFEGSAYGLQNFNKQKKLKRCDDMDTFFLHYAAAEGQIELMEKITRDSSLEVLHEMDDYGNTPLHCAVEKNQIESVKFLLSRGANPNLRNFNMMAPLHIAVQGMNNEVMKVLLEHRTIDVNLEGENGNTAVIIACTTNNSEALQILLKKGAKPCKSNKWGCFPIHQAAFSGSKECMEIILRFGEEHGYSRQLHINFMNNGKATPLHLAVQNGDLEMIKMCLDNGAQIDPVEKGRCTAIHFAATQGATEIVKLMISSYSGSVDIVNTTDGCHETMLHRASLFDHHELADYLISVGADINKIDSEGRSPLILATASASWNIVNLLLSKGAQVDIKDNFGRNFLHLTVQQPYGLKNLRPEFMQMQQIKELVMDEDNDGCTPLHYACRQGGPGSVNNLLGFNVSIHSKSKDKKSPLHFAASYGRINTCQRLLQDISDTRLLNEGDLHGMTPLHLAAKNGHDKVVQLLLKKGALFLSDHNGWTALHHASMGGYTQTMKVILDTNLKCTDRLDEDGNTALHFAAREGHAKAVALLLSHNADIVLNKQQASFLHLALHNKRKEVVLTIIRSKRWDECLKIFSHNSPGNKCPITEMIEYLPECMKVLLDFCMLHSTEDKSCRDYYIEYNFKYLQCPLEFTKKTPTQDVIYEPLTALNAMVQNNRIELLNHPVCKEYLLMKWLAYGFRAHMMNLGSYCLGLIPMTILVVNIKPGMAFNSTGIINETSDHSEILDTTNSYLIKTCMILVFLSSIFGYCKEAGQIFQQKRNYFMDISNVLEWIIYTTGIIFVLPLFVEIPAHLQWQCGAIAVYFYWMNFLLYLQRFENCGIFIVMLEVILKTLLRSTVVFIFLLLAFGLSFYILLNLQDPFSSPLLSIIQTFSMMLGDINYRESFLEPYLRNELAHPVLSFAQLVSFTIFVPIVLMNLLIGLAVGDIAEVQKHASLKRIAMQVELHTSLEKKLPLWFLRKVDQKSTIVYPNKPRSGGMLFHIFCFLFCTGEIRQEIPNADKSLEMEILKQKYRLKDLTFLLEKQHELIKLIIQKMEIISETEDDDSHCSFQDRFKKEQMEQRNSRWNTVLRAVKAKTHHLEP

39 (GSGVPTDVKCRGSPQCIQPCKDAGMRFGKCMNGKCHCTPK) [compound 39]
Activity of NR2B with peptide, expressed as a percentage of the reference compound (NR2B; peptide at 0.2 μM): 102% | Activity of NR2B with peptide (percentage of the reference compound) (NR2B; peptide at 20 μM): 85% | Activity of a4b2 with peptide, expressed as a percentage of the reference compound (α4β2; peptide at 0.2 μM): 98% | Activity of a4b2 with peptide (percentage of the reference compound) (α4β2; peptide at 20 μM): 91% | Activity of GABA with peptide, expressed as a percentage of the reference compound (GABA; peptide at 0.2 μM): 111% | Activity of GABA with peptide (percentage of the reference compound) (GABA; peptide at 20 μM): 108% | Activity of Nav1.5 with peptide, expressed as a percentage of the reference compound (Nav1.5; [1]): 108% | Activity of Nav1.5 with peptide, expressed as a percentage of the reference compound (Nav1.5; [2]): 105% | Activity of Nav1.5 with peptide (percentage of the reference compound) (Nav1.5; [1]): 111% | Activity of Nav1.5 with peptide (percentage of the reference compound) (Nav1.5; [2]): 114% | Activity of hERG with peptide, expressed as a percentage of the reference compound (hERG; peptide at 0.2 μM): 103% | Activity of hERG with peptide (percentage of the reference compound) (hERG; peptide at 20 μM): 84% | Activity of TRPV1 with peptide, expressed as a percentage of the reference compound (TRPV1; peptide at 0.2 μM): 95% | Activity of TRPV1 with peptide (percentage of the reference compound) (TRPV1; peptide at 20 μM): 83% | Activity of NR2A with peptide, expressed as a percentage of the reference compound (NR2A; peptide at 0.2 μM): 106% | Activity of NR2A with peptide (percentage of the reference compound) (NR2A; peptide at 20 μM): 82% | Activity of a3b4 with peptide, expressed as a percentage of the reference compound (α3β4; peptide at 0.2 μM): 99% | Activity of a3b4 with peptide (percentage of the reference compound) (α3β4; peptide at 20 μM): 93% | Activity of 5HT3a with peptide (percentage of the reference compound) (5HT3a): 55% | Activity of 5HT3a with peptide, expressed as a percentage of the reference compound (5HT3a): 67% | Activity of Nav1.7 with peptide, expressed as a percentage of the reference compound (Nav1.7; [3]): 42% | Activity of Nav1.7 with peptide, expressed as a percentage of the reference compound (Nav1.7; [4]): 39% | Activity of Nav1.7 with peptide (percentage of the reference compound) (Nav1.7; [3]): 108% | Activity of Nav1.7 with peptide (percentage of the reference compound) (Nav1.7; [4]): 110% | Activity of Kir2.1 with peptide, expressed as a percentage of the reference compound (Kir2.1; peptide at 0.2 μM): 110% | Activity of Kir2.1 with peptide (percentage of the reference compound) (Kir2.1; peptide at 20 μM): 98% | Activity of Kv1.1 with peptide, expressed as a percentage of the reference compound (Kv1.1; peptide at 0.2 μM): 37% | Activity of Kv1.1 with peptide (percentage of the reference compound) (Kv1.1; peptide at 20 μM): 21% | Activity of Kv1.2 with peptide, expressed as a percentage of the reference compound (Kv1.2; peptide at 0.2 μM): 96% | Activity of Kv1.2 with peptide (percentage of the reference compound) (Kv1.2; peptide at 20 μM): 84% | Activity of Kv1.3 with peptide, expressed as a percentage of the reference compound (Kv1.3; peptide at 0.2 μM): 7% | Activity of Kv1.3 with peptide (percentage of the reference compound) (Kv1.3; peptide at 20 μM): 1% | Activity of Kv2.1 with peptide, expressed as a percentage of the reference compound (Kv2.1; peptide at 0.2 μM): 118% | Activity of Kv2.1 with peptide (percentage of the reference compound) (Kv2.1; peptide at 20 μM): 102% | Activity of Cav2.1 with peptide, expressed as a percentage of the reference compound (Cav2.1; peptide at 0.2 μM): 96% | Activity of Cav2.1 with peptide (percentage of the reference compound) (Cav2.1; peptide at 20 μM): 96% | Activity of Cav2.2 with peptide, expressed as a percentage of the reference compound (Cav2.2; peptide at 0.2 μM): 117% | Activity of Cav2.2 with peptide (percentage of the reference compound) (Cav2.2; peptide at 20 μM): 98% | Activity of TRPA1 with peptide, expressed as a percentage of the reference compound (TRPA1; peptide at 0.2 μM): 136% | Activity of TRPA1 with peptide (percentage of the reference compound) (TRPA1; peptide at 20 μM): 92%
